# ± gives the standard error. Fewer inactive variants are shown than the library holds.
# B1: glmS ribozyme (parent)
# chain: AUAAAAGCGCCAGAACUACAGAAAUGUAGUUGACGAGGAGGAGGUUUAUCGAAUUUUCGGCGGAUGCCUCCAAA
# Variants of: B1
# Experiment: self-cleavage kobs at 2500 uM GlcN6P; higher = faster cleavage; RNA array
# Settings: with glucosamine-6-phosphate
# Summary of the method: (§1)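 Barcoded ribozyme variants, transcribed in situ by E. coli RNA polymerase on sequenced MiSeq chips, were followed via a hybridised Cy3 probe at 37 °C. Glucosamine-6-phosphate ranged from 40 μM to 10 mM in HEPES/KCl/Mg(OAc)2 buffer. kobs came from decay fits to per-tile medians, and kcat and KM from weighted Michaelis–Menten fits.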
row,Variant,self-cleavage kobs at 2500 uM GlcN6P
1,A15G C58U C70U,3.63e-05 ± 1.4e-05 s⁻¹
2,A14U C16A U31G G32U,0.000112 ± 4.4e-05 s⁻¹
3,G29U G32C A42C U57G,< 1e-05 s⁻¹
4,G29C A48C U49C,< 1e-05 s⁻¹
5,A12U G41U U46C,9.28e-05 ± 3.6e-05 s⁻¹
6,A15G G51A U57C,< 1e-05 s⁻¹
7,C16G G51U U57G,< 1e-05 s⁻¹
8,A15U U30G C58U,2.92e-05 ± 1.5e-05 s⁻¹
9,U30G G32A A42U A48G,< 1e-05 s⁻¹
10,A14C G21U,0.00132 ± 0.00031 s⁻¹
11,G29C G62A C70G,3.86e-05 ± 1.9e-05 s⁻¹
12,C16U U57A C70A,8.78e-05 ± 3.6e-05 s⁻¹
13,A15G U31G G32U U45A,0.000424 ± 0.00012 s⁻¹
14,G29A U65C,6.71e-05 ± 1.9e-05 s⁻¹
15,A15C G37A U65G,8.59e-05 ± 2.6e-05 s⁻¹
16,A14G G32C C58A A64G,9.27e-05 ± 3e-05 s⁻¹
17,A12U C50U U65C,< 1e-05 s⁻¹
18,A14C U46C C50A U57C C61U U65C,< 1e-05 s⁻¹
19,G29A U47A A52U,4.18e-05 ± 1.7e-05 s⁻¹
20,U30C A53U G66U U69G,0.000128 ± 2.7e-05 s⁻¹
21,U31A A39U C70U,0.00182 ± 0.0009 s⁻¹
22,C16G A36U A48G C58A,< 1e-05 s⁻¹
23,A12U U31C G44U C67A,0.00303 ± 0.001 s⁻¹

row,Variant,self-cleavage kobs at 2500 uM GlcN6P
1,A14U C16U C58U,5.54e-05 ± 1.5e-05 s⁻¹
2,U30G G35A G51A C70A,< 1e-05 s⁻¹
3,A15C G32U G38C G59U,< 1e-05 s⁻¹
4,C16A G66A C68U,6.12e-05 ± 1.5e-05 s⁻¹
5,A15C A36C A48U U57C,< 1e-05 s⁻¹
6,G13U U55G C67A,8.05e-05 ± 1.9e-05 s⁻¹
7,U30G G59C U65G,< 1e-05 s⁻¹
8,A14U U30C A53C,< 1e-05 s⁻¹
9,G29C U31C C70A,7.34e-05 ± 3.4e-05 s⁻¹
10,U30C A39U U56G,2.5e-05 ± 1.2e-05 s⁻¹
11,C16A A36G C67G,< 1e-05 s⁻¹
12,A15U G29C G40U,3.13e-05 ± 1.2e-05 s⁻¹
13,U30A G43U,< 1e-05 s⁻¹
14,A15G U45C U65G C67U,0.000125 ± 3.7e-05 s⁻¹
15,G29A G32U G60C,< 1e-05 s⁻¹
16,A14G G40A G41C,0.00048 ± 0.0001 s⁻¹
17,C16A A39U C71A,6.01e-05 ± 1.6e-05 s⁻¹
18,U30C C58G C70U,5.76e-05 ± 1.9e-05 s⁻¹
19,G29C G40U U46C C67A,< 1e-05 s⁻¹
20,C16U G41C C70A,0.000347 ± 0.00017 s⁻¹
21,A15U U30C C61G,< 1e-05 s⁻¹
22,A14C G43U C61A,< 1e-05 s⁻¹
23,A15U A33C U45G G51U U55G,< 1e-05 s⁻¹

row,Variant,self-cleavage kobs at 2500 uM GlcN6P
1,A14C C16A G63U,< 1e-05 s⁻¹
2,U30A A33U C58G U69C,0.000281 ± 8.6e-05 s⁻¹
3,A14U G40C A64G,6.98e-05 ± 1.7e-05 s⁻¹
4,G13A G32U C67A,3.47e-05 ± 1.3e-05 s⁻¹
5,A15C C16U U17A C70G,7.4e-05 ± 1.7e-05 s⁻¹
6,C16A G40U U57A C67U,< 1e-05 s⁻¹
7,C16U C34A G59C U69A,< 1e-05 s⁻¹
8,A14C G43C G51A U56G,< 1e-05 s⁻¹
9,A15G G35C A64G,< 1e-05 s⁻¹
10,G29U U47A U69G,7.38e-05 ± 1.7e-05 s⁻¹
11,U30A G38A A52G,< 1e-05 s⁻¹
12,A14C U46C C70U,0.000279 ± 5.2e-05 s⁻¹
13,G13A G32C U45G,4.68e-05 ± 1.9e-05 s⁻¹
14,C16U G35U G38U C50A,< 1e-05 s⁻¹
15,U30A G32U C50A,< 1e-05 s⁻¹
16,C16U U55G C67G,0.000952 ± 0.00032 s⁻¹
17,A14U G29U C67U,9.48e-05 ± 2.4e-05 s⁻¹
18,U30C G38C U46C,< 1e-05 s⁻¹
19,A14C U54A U55A,0.00221 ± 0.00054 s⁻¹
20,A14C A52G,0.000215 ± 3.3e-05 s⁻¹
21,G21A A48C,0.000242 ± 7.9e-05 s⁻¹
22,C16U G43A U49A,< 1e-05 s⁻¹
23,G13U G43U G63U,< 1e-05 s⁻¹

row,Variant,self-cleavage kobs at 2500 uM GlcN6P
1,A15C G35C U69C,< 1e-05 s⁻¹
2,C16A G40U U54C C71U,8.78e-05 ± 1.5e-05 s⁻¹
3,U31A U46C A53G C70A,4.56e-05 ± 1.7e-05 s⁻¹
4,A15U U30C U31C G40U A64U G66A,< 1e-05 s⁻¹
5,A14G G38C C61U,< 1e-05 s⁻¹
6,A14U C16A G63A,< 1e-05 s⁻¹
7,U30G U57A G60U,< 1e-05 s⁻¹
8,A15G G59C G60U,< 1e-05 s⁻¹
9,G29C A48U G60C,< 1e-05 s⁻¹
10,A14G A33U G43C G62A,< 1e-05 s⁻¹
11,U30C A36U A48C,< 1e-05 s⁻¹
12,A14G A53C U57G,0.000168 ± 5.2e-05 s⁻¹
13,G13C A14G C68U,8.88e-05 ± 2.7e-05 s⁻¹
14,A15G G32C A53G,4.37e-05 ± 1.3e-05 s⁻¹
15,A15G U30A C71U,0.0164 ± 0.0034 s⁻¹
16,A15U G35U A48C A64U,< 1e-05 s⁻¹
17,A15G G44C,0.00014 ± 4.2e-05 s⁻¹
18,C16G G38A U47C G62A,< 1e-05 s⁻¹
19,G29A G35C C71A,< 1e-05 s⁻¹
20,G29U A42C C61A,< 1e-05 s⁻¹
21,C16U G51U A52C C68A C70U C71U,< 1e-05 s⁻¹
22,A14G G63C A64U,< 1e-05 s⁻¹
23,A12U G32U G43C,< 1e-05 s⁻¹

row,Variant,self-cleavage kobs at 2500 uM GlcN6P
1,A28C U49G U55A,0.000284 ± 7.5e-05 s⁻¹
2,G29U A36U A42U U56G G66U,< 1e-05 s⁻¹
3,U30A G37C U65G G66U,< 1e-05 s⁻¹
4,A14U C50G G60C,0.000405 ± 0.00014 s⁻¹
5,A12U G41A C68U,3.9e-05 ± 1.6e-05 s⁻¹
6,A15U A33U G62A,< 1e-05 s⁻¹
7,G26U U65A,0.00219 ± 0.00042 s⁻¹
8,A12U G44U C70U,5.27e-05 ± 1.8e-05 s⁻¹
9,A14U G29U G32C U56C C68A C70U,< 1e-05 s⁻¹
10,A15C A39U G59C U69C,< 1e-05 s⁻¹
11,U30A A36C U45C,< 1e-05 s⁻¹
12,G13C C58G G59A,< 1e-05 s⁻¹
13,A15U U31A C70A,6.54e-05 ± 2.7e-05 s⁻¹
14,U31A G41U G59U,< 1e-05 s⁻¹
15,G29C U30C G32U A52C,< 1e-05 s⁻¹
16,A14C G37C G62C,< 1e-05 s⁻¹
17,G29U A36U C70G,0.000444 ± 0.0001 s⁻¹
18,G29C G35U G40U,< 1e-05 s⁻¹
19,A15C G37U A39C G41A G63U G66C,< 1e-05 s⁻¹
20,G13C U45A U46C,5.29e-05 ± 1.6e-05 s⁻¹
21,U30G A33U G35C U46C,< 1e-05 s⁻¹
22,A12U G41U A42G G51C,< 1e-05 s⁻¹
23,U31A G41U C70U,0.00307 ± 0.00088 s⁻¹

row,Variant,self-cleavage kobs at 2500 uM GlcN6P
1,G13A C34U G43U,< 1e-05 s⁻¹
2,A15C G60A G62U,< 1e-05 s⁻¹
3,G29A A33G G38A G60U,< 1e-05 s⁻¹
4,C16U U46G U47C C70U,0.00139 ± 0.00038 s⁻¹
5,G13C A15C G59A,< 1e-05 s⁻¹
6,A15G A36G G44U G60C,< 1e-05 s⁻¹
7,C16G G43A U57A G66U U69A,< 1e-05 s⁻¹
8,A15C U31C C71A,0.000185 ± 3.9e-05 s⁻¹
9,G13A U45G A64G,6.3e-05 ± 1.9e-05 s⁻¹
10,A14G C34U G35A G43C,< 1e-05 s⁻¹
11,A15U A36G A39U,< 1e-05 s⁻¹
12,A15G G59A C70U,4.76e-05 ± 1.4e-05 s⁻¹
13,C16U U46G U55C,0.00261 ± 0.00068 s⁻¹
14,G13A U30G A53U,0.000141 ± 4.4e-05 s⁻¹
15,U30A U31A U57A C71U,0.000133 ± 3.1e-05 s⁻¹
16,U30A U31G A48C,6.79e-05 ± 1.6e-05 s⁻¹
17,C16U G43C U45G,0.000762 ± 0.00024 s⁻¹
18,A14U G43C C68U,5.22e-05 ± 1.6e-05 s⁻¹
19,U30G G43C A48C,< 1e-05 s⁻¹
20,A14C C16U G40C G44A G60A,< 1e-05 s⁻¹
21,A12U U57C C71G,0.000242 ± 0.00011 s⁻¹
22,A15U C58G C68U,6.36e-05 ± 2.9e-05 s⁻¹
23,A15G A39C U45A U56C,0.000239 ± 5.6e-05 s⁻¹

row,Variant,self-cleavage kobs at 2500 uM GlcN6P
1,A15U G35C G38U U47G U69G,< 1e-05 s⁻¹
2,G13U A15U U30G G59C,< 1e-05 s⁻¹
3,C16U U30A U65A,8.89e-05 ± 1.9e-05 s⁻¹
4,A15C G38A C67U,< 1e-05 s⁻¹
5,A14C C50A A53U C70G,4.72e-05 ± 2e-05 s⁻¹
6,U30G C67U C71G,0.00027 ± 9.4e-05 s⁻¹
7,G29U G38C G59A,< 1e-05 s⁻¹
8,G29C C67A C68G,7.78e-05 ± 2.8e-05 s⁻¹
9,C16A C34U G51U,< 1e-05 s⁻¹
10,G13U G41C G60A,< 1e-05 s⁻¹
11,U30A C68G,7.09e-05 ± 1.5e-05 s⁻¹
12,U30A G51A C61U,< 1e-05 s⁻¹
13,G13A A15C C50G C70A,0.000129 ± 2.5e-05 s⁻¹
14,A15G A39U A64C,0.000106 ± 2.7e-05 s⁻¹
15,U30G G62A A64U C71U,< 1e-05 s⁻¹
16,A15U C16G C58A,0.000131 ± 2.8e-05 s⁻¹
17,A15U G29A G35U G37A U54A,< 1e-05 s⁻¹
18,G13U U47C A64G,0.000125 ± 3.1e-05 s⁻¹
19,A15C U45A A64G,0.00477 ± 0.002 s⁻¹
20,A15C U45G U54A,0.000589 ± 0.00012 s⁻¹
21,A14G U57A U65G,4.18e-05 ± 1.4e-05 s⁻¹

# Variants of: B1
# Experiment: self-cleavage kobs at 10000 uM GlcN6P; higher = faster cleavage; RNA array
# Settings: with glucosamine-6-phosphate
# Summary of the method: as §1
row,Variant,self-cleavage kobs at 10000 uM GlcN6P
1,A14U C16A U31G G32U,9.26e-05 ± 2.2e-05 s⁻¹
2,G29A U65C,8.99e-05 ± 3.1e-05 s⁻¹
3,U30C A39U U56G,9.2e-05 ± 2.1e-05 s⁻¹
4,U30A G43U,< 1e-05 s⁻¹
5,C16A G40U U57A C67U,< 1e-05 s⁻¹
6,A14C G43C G51A U56G,< 1e-05 s⁻¹
7,A14C U46C C70U,0.000482 ± 9.4e-05 s⁻¹
8,A14C A52G,0.000282 ± 5.3e-05 s⁻¹
9,A15G G44C,0.000166 ± 3.2e-05 s⁻¹
10,G29A G35C C71A,< 1e-05 s⁻¹
11,G29U A42C C61A,< 1e-05 s⁻¹
12,A12U G41A C68U,6.86e-05 ± 1.4e-05 s⁻¹
13,A12U G41U A42G G51C,< 1e-05 s⁻¹
14,A15U A36G A39U,< 1e-05 s⁻¹
15,A15U G35C G38U U47G U69G,0.000954 ± 0.0003 s⁻¹
16,U30A G51A C61U,< 1e-05 s⁻¹
17,A14G U57A U65G,6.87e-05 ± 1.5e-05 s⁻¹

# — the supplement of paper PMC7125110
